Starred links: 1 amine or outer side, 2 acyl side, 3 side chain; linkers in the order of their positions; H or OH if unused. Non-standard residues stand in square brackets, D forms with d. Tyr(Bzl) = Obtyr, O-benzyl-L-tyrosine, O=C([C@H](Cc1ccc(OCc2ccccc2)cc1)N[*:1])[*:2]; Tyr(Et) = Oetyr, O-ethyl-L-tyrosine, CCOc1ccc(C[C@H](N[*:1])C(=O)[*:2])cc1; Tyr(Me) = Omtyr, O-methyl-L-tyrosine, COc1ccc(C[C@H](N[*:1])C(=O)[*:2])cc1; Obtyr = O-benzyl-L-tyrosine, O=C([C@H](Cc1ccc(OCc2ccccc2)cc1)N[*:1])[*:2]; Oetyr = O-ethyl-L-tyrosine, CCOc1ccc(C[C@H](N[*:1])C(=O)[*:2])cc1; Phe(4-NH2) = Nc1ccc(C[C@H](N)C(=O)O)cc1; 2Nal = N[C@@H](Cc1ccc2ccccc2c1)C(=O)O; Sar = CNCC(=O)O
Key:
[1] = target: Sushi domains (SD1/2) protein of GABAB1a (GB1a); assay: FP competition vs TAMRA AJAP-1probe
Sushi domains (SD1/2) protein of GABAB1a (GB1a), sequence (Q9Z0U4 29-158): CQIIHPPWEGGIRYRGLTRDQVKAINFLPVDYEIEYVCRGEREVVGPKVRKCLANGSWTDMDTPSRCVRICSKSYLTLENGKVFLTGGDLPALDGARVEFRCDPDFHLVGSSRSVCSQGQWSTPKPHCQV

[2] = target: Sushi domains (SD1/2) protein of the GABAB1a (GB1a) subunit, recombinant; assay: FP competition
Sushi domains (SD1/2) protein of the GABAB1a (GB1a) subunit, recombinant, sequence (Q9Z0U4 29-158): as above

[3] = target: Sushi domains (SD1/2) protein of the GABAB1a (GB1a) subunit, recombinant; assay: FP competition; remark: listed apart in the source
[4] = target: Sushi domains (SD1/2) protein of the GABAB1a (GB1a) subunit, recombinant; assay: FP competition with AJAP-1probe

B1: EDDSDVWW(Obtyr)GADTD (peptide)
peptide: Ac-EDDSDVWW[Tyr(Bzl)]GADTD-NH2
SMILES: CC(=O)N[C@@H](CCC(=O)O)C(=O)N[C@@H](CC(=O)O)C(=O)N[C@@H](CC(=O)O)C(=O)N[C@@H](CO)C(=O)N[C@@H](CC(=O)O)C(=O)N[C@H](C(=O)N[C@@H](Cc1c[nH]c2ccccc12)C(=O)N[C@@H](Cc1c[nH]c2ccccc12)C(=O)N[C@@H](Cc1ccc(OCc2ccccc2)cc1)C(=O)NCC(=O)N[C@@H](C)C(=O)N[C@@H](CC(=O)O)C(=O)N[C@H](C(=O)N[C@@H](CC(=O)O)C(N)=O)[C@@H](C)O)C(C)C
A Ki [1] of 88 nM and a Ki [2] of 100 nM were found for B1 in this work.

B2: EDDSDVWW(Oetyr)GADTD (peptide)
peptide: Ac-EDDSDVWW[Tyr(Et)]GADTD-NH2
SMILES: CCOc1ccc(C[C@H](NC(=O)[C@H](Cc2c[nH]c3ccccc23)NC(=O)[C@H](Cc2c[nH]c3ccccc23)NC(=O)[C@@H](NC(=O)[C@H](CC(=O)O)NC(=O)[C@H](CO)NC(=O)[C@H](CC(=O)O)NC(=O)[C@H](CC(=O)O)NC(=O)[C@H](CCC(=O)O)NC(C)=O)C(C)C)C(=O)NCC(=O)N[C@@H](C)C(=O)N[C@@H](CC(=O)O)C(=O)N[C@H](C(=O)N[C@@H](CC(=O)O)C(N)=O)[C@@H](C)O)cc1
A Ki [1] of 113 nM and a Ki [2] of 100 nM were found for B2 in this work.

B3: EDDSDVWW(Aphe)GADTD (peptide)
peptide: Ac-EDDSDVWW[Phe(4-NH2)]GADTD-NH2
SMILES: CC(=O)N[C@@H](CCC(=O)O)C(=O)N[C@@H](CC(=O)O)C(=O)N[C@@H](CC(=O)O)C(=O)N[C@@H](CO)C(=O)N[C@@H](CC(=O)O)C(=O)N[C@H](C(=O)N[C@@H](Cc1c[nH]c2ccccc12)C(=O)N[C@@H](Cc1c[nH]c2ccccc12)C(=O)N[C@@H](Cc1ccc(N)cc1)C(=O)NCC(=O)N[C@@H](C)C(=O)N[C@@H](CC(=O)O)C(=O)N[C@H](C(=O)N[C@@H](CC(=O)O)C(N)=O)[C@@H](C)O)C(C)C
A Ki [1] of 102 nM and a Ki [2] of 100 nM were found for B3 in this work.

A Ki [3] of 1.5 nM was found for EDDDAIDWYDSDDD (N-terminal acetyl; C-terminal amide; 3-(2-naphthyl)-L-alanine (2Nala) at 5) [peptide 20 (Ac-EDDD(2Nala)…-NH2)] in this work.

A fold better affinity than 9 [2] of 3.8 fold and a Ki [3] of 16 nM were found for Ac-EDDSWIWWGPTGDED-NH2 [peptide 27 (Ac-…-NH2)] in this work.

A Ki [3] of 18 nM was found for Ac-EDDSWIWWYGADTD-NH2 [peptide 28 (Ac-…-NH2)] in this work.

A fold higher affinity than APPWT [2] of 10 fold and a Ki [3] of 62 nM were found for Ac-EDDSDVWWGPTGDED-NH2 [hybrid peptide X (Ac-…-NH2)] in this work.

B4: peptide 34 (Ac-EDDD(Oetyr)…-NH2) (peptide)
peptide: Ac-EDDD[Oetyr]IDWGPTSDDD-NH2
SMILES: CCOc1ccc(C[C@H](NC(=O)[C@H](CC(=O)O)NC(=O)[C@H](CC(=O)O)NC(=O)[C@H](CC(=O)O)NC(=O)[C@H](CCC(=O)O)NC(C)=O)C(=O)N[C@H](C(=O)N[C@@H](CC(=O)O)C(=O)N[C@@H](Cc2c[nH]c3ccccc23)C(=O)NCC(=O)N2CCC[C@H]2C(=O)N[C@H](C(=O)N[C@@H](CO)C(=O)N[C@@H](CC(=O)O)C(=O)N[C@@H](CC(=O)O)C(=O)N[C@@H](CC(=O)O)C(N)=O)[C@@H](C)O)[C@@H](C)CC)cc1
A Ki [3] of 6.5 nM was found for B4 in this work.

A Ki [3] of 11 nM was found for Ac-EDDSWIDWYGADTD-NH2 [peptide 30 (Ac-…-NH2)] in this work.

A Ki [3] of 95 nM was found for Ac-ETEFIAWYGADTD-NH2 [peptide 37 (Ac-…-NH2)] in this work.

A Ki [3] of 5.6 nM was found for Ac-EDDSWIDWGPTGDED-NH2 [peptide 29 (Ac-…-NH2)] in this work.

A Ki [4] of 465 nM was found for Ac-PWAIVWGPTVSREDG-NH2 [peptide 14 (…)] in this work.

A Ki [2] of 32 nM and a Ki [3] of 31 nM were found for Ac-ETEFIAWGPTGDED-NH2 [AJAP-1WT (Ac-…-NH2)] in this work.

A Ki [3] of 3.2 nM was found for Ac-EDDDWIDWYDSDDD-NH2 [peptide 16 (Ac-…-NH2)] in this work.

A Ki [4] of 1530 nM was found for Ac-ADAEEDDSDVWWGGA-NH2 in this work.

B5: EDDSDVWW(2Nala)GADTD (peptide)
peptide: Ac-EDDSDVWW[2Nal]GADTD-NH2
SMILES: CC(=O)N[C@@H](CCC(=O)O)C(=O)N[C@@H](CC(=O)O)C(=O)N[C@@H](CC(=O)O)C(=O)N[C@@H](CO)C(=O)N[C@@H](CC(=O)O)C(=O)N[C@H](C(=O)N[C@@H](Cc1c[nH]c2ccccc12)C(=O)N[C@@H](Cc1c[nH]c2ccccc12)C(=O)N[C@@H](Cc1ccc2ccccc2c1)C(=O)NCC(=O)N[C@@H](C)C(=O)N[C@@H](CC(=O)O)C(=O)N[C@H](C(=O)N[C@@H](CC(=O)O)C(N)=O)[C@@H](C)O)C(C)C
A Ki [1] of 75 nM and a Ki [2] of 100 nM were found for B5 in this work.

A Ki [3] of 4.6 nM was found for Ac-EDDYIDWYDSDDD-NH2 [peptide 18 (Ac-…-NH2)] in this work.

A Ki [4] of 1350 nM was found for Ac-WAIVWGPTVSREDGG-NH2 in this work.

B6: peptide 21 (Ac-EDDD(2Nala)…-NH2) (peptide)
peptide: Ac-EDDD[2Nal]IDWGPTSDDD-NH2
SMILES: CC[C@H](C)[C@H](NC(=O)[C@H](Cc1ccc2ccccc2c1)NC(=O)[C@H](CC(=O)O)NC(=O)[C@H](CC(=O)O)NC(=O)[C@H](CC(=O)O)NC(=O)[C@H](CCC(=O)O)NC(C)=O)C(=O)N[C@@H](CC(=O)O)C(=O)N[C@@H](Cc1c[nH]c2ccccc12)C(=O)NCC(=O)N1CCC[C@H]1C(=O)N[C@H](C(=O)N[C@@H](CO)C(=O)N[C@@H](CC(=O)O)C(=O)N[C@@H](CC(=O)O)C(=O)N[C@@H](CC(=O)O)C(N)=O)[C@@H](C)O
A Ki [3] of 5.3 nM was found for B6 in this work.

A Ki [3] of 354 nM was found for Ac-ETEFIAWGGADTD-NH2 [hybrid peptide Y (Ac-…-NH2)] in this work.

A Ki [3] of 4 nM was found for Ac-EDDDWIDWGPTSDDD-NH2 [peptide 17 (Ac-…-NH2)] in this work.

A Ki [4] of 1300 nM was found for Ac-SADAEEDDSDVWWGG-NH2 [peptide 12 (…)] in this work.

A Ki [4] of 73 nM was found for Ac-TTETEFIAWGPTGDE-NH2 in this work.

A Ki [3] of 3.8 nM was found for Ac-EDDYIDWGPTSDDD-NH2 [peptide 19 (Ac-…-NH2)] in this work.

B7: EDDSDVWW(Omtyr)GADTD (peptide)
peptide: Ac-EDDSDVWW[Tyr(Me)]GADTD-NH2
SMILES: COc1ccc(C[C@H](NC(=O)[C@H](Cc2c[nH]c3ccccc23)NC(=O)[C@H](Cc2c[nH]c3ccccc23)NC(=O)[C@@H](NC(=O)[C@H](CC(=O)O)NC(=O)[C@H](CO)NC(=O)[C@H](CC(=O)O)NC(=O)[C@H](CC(=O)O)NC(=O)[C@H](CCC(=O)O)NC(C)=O)C(C)C)C(=O)NCC(=O)N[C@@H](C)C(=O)N[C@@H](CC(=O)O)C(=O)N[C@H](C(=O)N[C@@H](CC(=O)O)C(N)=O)[C@@H](C)O)cc1
A Ki [1] of 109 nM and a Ki [2] of 100 nM were found for B7 in this work.

B8: peptide 35 (Ac-EDDD(Obtyr)…-NH2) (peptide)
peptide: Ac-EDDD[Obtyr]IDWGPTSDDD-NH2
SMILES: CC[C@H](C)[C@H](NC(=O)[C@H](Cc1ccc(OCc2ccccc2)cc1)NC(=O)[C@H](CC(=O)O)NC(=O)[C@H](CC(=O)O)NC(=O)[C@H](CC(=O)O)NC(=O)[C@H](CCC(=O)O)NC(C)=O)C(=O)N[C@@H](CC(=O)O)C(=O)N[C@@H](Cc1c[nH]c2ccccc12)C(=O)NCC(=O)N1CCC[C@H]1C(=O)N[C@H](C(=O)N[C@@H](CO)C(=O)N[C@@H](CC(=O)O)C(=O)N[C@@H](CC(=O)O)C(=O)N[C@@H](CC(=O)O)C(N)=O)[C@@H](C)O
A Ki [3] of 9.5 nM was found for B8 in this work.

A Ki [4] of 637 nM was found for Ac-AIVWGPTVSREDGGD-NH2 in this work.

B9: peptide 32 (Ac-EDDD(Oetyr)…-NH2) (peptide)
peptide: Ac-EDDD[Oetyr]IDWYDSDDD-NH2
SMILES: CCOc1ccc(C[C@H](NC(=O)[C@H](CC(=O)O)NC(=O)[C@H](CC(=O)O)NC(=O)[C@H](CC(=O)O)NC(=O)[C@H](CCC(=O)O)NC(C)=O)C(=O)N[C@H](C(=O)N[C@@H](CC(=O)O)C(=O)N[C@@H](Cc2c[nH]c3ccccc23)C(=O)N[C@@H](Cc2ccc(O)cc2)C(=O)N[C@@H](CC(=O)O)C(=O)N[C@@H](CO)C(=O)N[C@@H](CC(=O)O)C(=O)N[C@@H](CC(=O)O)C(=O)N[C@@H](CC(=O)O)C(N)=O)[C@@H](C)CC)cc1
A Ki [3] of 5.3 nM was found for B9 in this work.

A Ki [4] of 581 nM was found for Ac-EDDSDVWWGGADTDY-NH2 [peptide 13 (…)] in this work.

B10: PWAIVWG(N-Me-G)TVSRED (peptide)
peptide: Ac-PWAIVWG[Sar]TVSRED-NH2
SMILES: CC[C@H](C)[C@H](NC(=O)[C@H](C)NC(=O)[C@H](Cc1c[nH]c2ccccc12)NC(=O)[C@@H]1CCCN1C(C)=O)C(=O)N[C@H](C(=O)N[C@@H](Cc1c[nH]c2ccccc12)C(=O)NCC(=O)N(C)CC(=O)N[C@H](C(=O)N[C@H](C(=O)N[C@@H](CO)C(=O)N[C@@H](CCCNC(=N)N)C(=O)N[C@@H](CCC(=O)O)C(=O)N[C@@H](CC(=O)O)C(N)=O)C(C)C)[C@@H](C)O)C(C)C
A Ki [1] of 525 nM and a Ki [2] of 525 nM were found for B10 in this work.

B11: peptide 33 (Ac-EDDD(Obtyr)…-NH2) (peptide)
peptide: Ac-EDDD[Obtyr]IDWYDSDDD-NH2
SMILES: CC[C@H](C)[C@H](NC(=O)[C@H](Cc1ccc(OCc2ccccc2)cc1)NC(=O)[C@H](CC(=O)O)NC(=O)[C@H](CC(=O)O)NC(=O)[C@H](CC(=O)O)NC(=O)[C@H](CCC(=O)O)NC(C)=O)C(=O)N[C@@H](CC(=O)O)C(=O)N[C@@H](Cc1c[nH]c2ccccc12)C(=O)N[C@@H](Cc1ccc(O)cc1)C(=O)N[C@@H](CC(=O)O)C(=O)N[C@@H](CO)C(=O)N[C@@H](CC(=O)O)C(=O)N[C@@H](CC(=O)O)C(=O)N[C@@H](CC(=O)O)C(N)=O
A Ki [3] of 9.3 nM was found for B11 in this work.

From patent US20260193293A1, “PEPTIDES CAPABLE OF INHIBITING PROTEIN-PROTEIN INTERACTIONS AT GABAB1A SUBUNIT AND USES THEREOF” (UNIVERSITY OF COPENHAGEN, priority 2022, published 2026)
